Measured values taken from US20200087416A1 (Innovent, published 2020).

B1: ADI-10088 (antibody, human IgG2, kappa, V domains shown)
VH: QLQLQESGPGLVKPSETLSLTCTVSGGSIGSSSYYWAWIRQPPGKGLEWIGSINYRGSTYYNPSLKSRVTISVDTSKNQFSLKLSSVTAADTAVYYCARENSGVVPAAGPNWFDPWGQGTLVTVSS
VL: EIVLTQSPATLSLSPGERATLSCRASQSVSSYLAWYQQKPGQAPRLLIYDASNRATGIPARFSGSGSGTDFTLTISSLEPEDFAVYYCQQRRNWFTFGGGTKVEIKR
notes: IgG
B2: ADI-10089 (antibody, human IgG2, kappa, V domains shown)
VH: QLQLQESGPGLVKPSETLSLTCTVSGGSIGSSSYYWTWIRQPPGKGLEWIGSINYRGSTYYNPSLKSRVTISVDTSKNQFSLKLSSVTAADTAVYYCARENSGVVPAAGPNWFDPWGQGTLVTVSS
VL: EIVLTQSPATLSLSPGERATLSCRASQSVSSYLAWYQQKPGQAPRLLIYDASNRATGIPARFSGSGSGTDFTLTISSLEPEDFAVYYCQQRRNWFTFGGGTKVEIKR
notes: IgG
B3: ADI-10085 Fab (Fab, V domains shown)
VH: QLQLQESGPGLVKPSETLSLTCTVSGGSIVSSSYYWAWIRQPPGKGLEWIGSINYKGSTYYNPSLKSRVTISVDTSKNQFSLKLSSVTAADTAVYYCARENSGVVPAAGPNWFGPWGQGTLVTVSS
VL: EIVLTQSPATLSLSPGERATLSCRASQSVSSYLAWYQQKPGQAPRLLIYDASNRATGIPARFSGSGSGTDFTLTISSLEPEDFAVYYCQQRRNWFTFGGGTKVEIKR

Tests used:
[1] = biological target: T1, human PCSK9 (PCSK9 antigen, SEQ ID NO. 53) (human, UniProt A8T644 31-152; Q8NBP7 153-692, Biotin-labelled on amines in the MSD-SET and sorting experiments; positions not given.); assay: flow cytometry, PCSK9 left on CHO-LDLR cells (anti-His-FITC) after premix with 0.1 nM antibody
T1 construct: Biotin-labelled in MSD-SET; also called PCSK9-WT; PCSK9 protein

[2] = biological target: T1, human PCSK9 (PCSK9 antigen, SEQ ID NO. …); assay: flow cytometry, PCSK9 left on CHO-LDLR cells (anti-His-FITC) after premix with 1000 nM antibody
murine PCSK-9 [3] = biological target: T2, murine PCSK-9 (murine, UniProt Q80W65 35-694); assay: BLI (ForteBio), IgG on AHQ sensor, 100 nM antigen
T2 construct: also called mouse PCSK9

[4] = biological target: T1, human PCSK9 (PCSK9 antigen, SEQ ID NO. …); assay: BLI (ForteBio), IgG on AHQ sensor, 100 nM antigen
[5] = biological target: T1, human PCSK9 (PCSK9 antigen, SEQ ID NO. …); assay: flow cytometry, PCSK9 left on CHO-LDLR cells (anti-His-FITC) after premix with 1 nM antibody
[6] = biological target: T1, human PCSK9 (PCSK9 antigen, SEQ ID NO. …); assay: cell-based or functional assay
[7] = biological target: T1, human PCSK9 (PCSK9 antigen, SEQ ID NO. …); assay: flow cytometry, PCSK9 left on CHO-LDLR cells (anti-His-FITC) after premix with 10 nM antibody
[8] = biological target: T1, human PCSK9 (PCSK9 antigen, SEQ ID NO. …); assay: flow cytometry, PCSK9 left on CHO-LDLR cells (anti-His-FITC) after premix with 100 nM antibody
[9] = biological target: T1, human PCSK9 (PCSK9 antigen, SEQ ID NO. …); assay: cell-based or functional assay; remark: listed apart in the source
[10] = biological target: T1, human PCSK9 (PCSK9 antigen, SEQ ID NO. …); assay: ForteBio method and MSD-SET assay, as the sentence says; end tied to ADI-10085 by Table 2
[11] = biological target: T1, human PCSK9 (PCSK9 antigen, SEQ ID NO. …); assay: MSD-SET, Fab with biotin-PCSK9 in solution, IgG on plate, pH 6.0
murine PCSK-9 [12] = biological target: T2, murine PCSK-9; assay: MSD-SET, Fab with biotin-PCSK9 in solution, IgG on plate, pH 7.4
[13] = biological target: T1, human PCSK9 (PCSK9 antigen, SEQ ID NO. …); assay: as above

Binder | Fluorescence Signal Value [1] | Fluorescence Signal Value [2] | Kd (murine PCSK-9 [3]) [nM] | Kd [4] [nM] | Fluorescence Signal Value [5] | fluorescence of BODIPY-LDL in HepG2 cells against no anti-PCSK9 antibody [6] [times] | Fluorescence Signal Value [7] | Fluorescence Signal Value [8] | BODIPY-LDL uptake by HepG2 cells, fluorescence, 4.2 nM, replicate 1 [9] | BODIPY-LDL uptake by HepG2 cells, fluorescence, 4.2 nM, replicate 2 [9] | BODIPY-LDL uptake by HepG2 cells, fluorescence, 16.8 nM, replicate 1 [9] | BODIPY-LDL uptake by HepG2 cells, fluorescence, 16.8 nM, replicate 2 [9] | BODIPY-LDL uptake by HepG2 cells, fluorescence, 66.7 nM, replicate 1 [9] | BODIPY-LDL uptake by HepG2 cells, fluorescence, 66.7 nM, replicate 2 [9] | Kd [10] [nM] | Kd [11] [nM] | Kd (murine PCSK-9 [12]) [nM] | Kd [13] [nM]
B1 | 6800 | 5220 | 0.855 | 0.471 | 6830 | ~2 | 5830 | 5160 | 0.357 | 0.401 | 0.574 | 0.561 | 0.706 | 0.752 |  |  |  | 
B2 | 6890 | 5330 | 0.589 | 0.311 | 6500 | ~2 | 5640 | 5140 | 0.38 | 0.399 | 0.712 | 0.706 | 0.774 | 0.741 |  |  |  | 
B3 |  |  |  |  |  |  |  |  |  |  |  |  |  |  | 0.004 | 0.0059 | 0.041 | 0.0042
